Literature values as cited in article PMC12860355.

Target: TATA-binding protein (Homo sapiens) (UniProt P20226)
Sequence of UniProt P20226 (P20226 whole entry): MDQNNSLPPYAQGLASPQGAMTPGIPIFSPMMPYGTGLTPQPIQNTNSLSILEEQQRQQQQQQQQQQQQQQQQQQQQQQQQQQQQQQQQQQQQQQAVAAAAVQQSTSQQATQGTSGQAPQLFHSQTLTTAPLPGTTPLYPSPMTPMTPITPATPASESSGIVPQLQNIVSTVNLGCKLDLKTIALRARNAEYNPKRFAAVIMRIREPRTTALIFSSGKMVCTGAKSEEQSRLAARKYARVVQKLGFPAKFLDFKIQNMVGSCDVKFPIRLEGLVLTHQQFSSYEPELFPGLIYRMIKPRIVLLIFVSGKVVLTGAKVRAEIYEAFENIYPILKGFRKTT

Substance: Importin 9 (from UniProt Q96P70)
- Kd: 1 nM
